This note sets out measurements from patent US20250074972A1, “ANTIBODIES AND METHODS FOR GENERATING THE SAME” (priority 2021, published 2025).

Experiment [1] relates to C. albicans WT strain SC5314. Put plainly: Candida albicans growth inhibition assay. In kind it is cell-based. The settings on record: OD 405 nm. As to the method:
The antifungal activity of Utr2 scAbs was assessed by measuring the growth of fungal cells in microtitre plates. A growth assay was carried out with C. albicans WT strain SC5314 and using caspofungin as a positive control. A starting concentration of 100 μg/ml was prepared for the test scAbs (B5, C8, D3, 1H3, 1B1 and 1D2) and caspofungin and these were double diluted in a 96 well microtitre plate in designated wells. The wells were inoculated using 50 μl 2×10^6 cells/ml diluted in RPMI-1640 medium and incubated for 24 h and 48 h at 37° C. Cell growth was determined by measuring optical density at 405 nm in a spectrophotometer.

In experiment [2] the test system is A. fumigatus AF293/FGSC1100 hyphae. Put plainly: Whole cell binding ELISA, A. fumigatus hyphae. More on the design: species or system Aspergillus fumigatus. The settings on record: starting concentration 100 μg/ml scAb. As to the method: C. albicans Utr2 shares certain degree of sequence similarity with S. cerevisiae Utr2, S. cerevisiae Crh1 and an Aspergillus fumigatus allergen Aspf9, with highly conserved putative glycosyl hydrolase domains (Alberti-Segui et al., 2004). The cross-reactivity of selected Utr2 scAbs to A. fumigatus was tested by performing a whole cell binding ELISA using C. albicans SC5314 and A. fumigatus AF293/FGSC1100 strains. To induce hyphal formation, wells of a MaxiSorp flat-bottom 96 well plate was coated with approximately 10^6 overnight grown cells diluted in DMEM or RPMI-1640 modified medium containing 10% heat-inactivated foetal calf serum (FCS) and incubated at 37° C. for 2-20 h. Cells were washed three times in PBS+0.05% Tween, blocked with 1.5% bovine serum albumin (BSA), and incubated at room temperature for 1 h. Cells were washed as before and a starting concentration of 100 μg/ml scAb in 1% blocking buffer was added in duplicate in doubling dilutions and incubated at room temperature for 1.5 h. After washing, cells were incubated with anti-human C kappa peroxidase antibody as described previously. Following incubation for 45 min at room temperature, wells were washed and stained with tetramethylbenzidine (TMB) and read at an absorbance of 450 nm in a VersaMax microplate reader (Molecular Devices, USA).
A general note: ELISA stands for enzyme-linked immunosorbent assay.

For experiment [3], the system named is C. albicans WT and Utr2 overexpression strains. Briefly: Immunofluorescence staining of C. albicans using Utr2 scAbs. In kind it is cell-based, Candida albicans. The settings on record: scAb 10 μg/ml (1D2 repeated at 50 μg/ml). Here is the method: Overnight grown C. albicans WT and Utr2 overexpression strains were diluted and left to adhere on a poly-L-lysine glass slide for 1 h. To induce hyphal growth the cells were grown in DMEM medium containing 10% heat-inactivated foetal calf serum (FCS) and incubated at 37° C. for 2 h. Cells were washed three times in Dulbecco's phosphate-buffered saline (DPBS) and fixed with 4% paraformaldehyde at room temperature for 15 minutes. After washing, cells were blocked with 1.5% BSA and incubated for 1 h. Cells were washed as before and stained with Utr2 scAbs at 10 μg/ml for 1 h at room temperature. After washing, cells were stained with FITC-labelled anti-human kappa light chain antibody (1 μg/ml) and incubated at room temperature for 1 h. Cells were washed again and stained with 25 μg/ml of Calcofluor white (CFW) to illuminate chitin-containing structures. Mounting medium was added with a coverslip before images were taken using an UltraVIEW® Vox spinning disk confocal microscope (Perkin Elmer, Waltham, Mass, USA). Calcofluor white stain was viewed at lower brightness (×1) and FITC stain was viewed at higher brightness (×8). Calcofluor white stained the chitin rich cell wall as well as septa of both C. albicans strains.
The immunofluorescence staining was repeated for 1D2 scAb with higher concentration of scAb (50 μg/ml) and FITC-labelled anti-human kappa light chain antibody (5 μg/ml). […]

Where [4] appears, read: after 24 h, top concentration of 100 μg/ml.

B1: C8: Utr2 antibody; SEQ ID NO: 18 (protein)
scFv: EVQLVQSGAEVKKPGSSVKVSCKASGGTFSSYAISWVRQAPGQGLEWMGIINPSGGSTSYAQKFQGRVTMTRDTSTSTVYMELSSLRSEDTAVYYCARGTKGKDYYYMDVWGKGTLVTVSSLEGGGGSGGGGSGGGASDIQMTQSPSSLSASVGDRVTITCRASQSISTYLNWYQQKPGTAPNLLIYGASNLQSGVPSRFSGSGSGTDFTLTISSLQPEDFATYYCQQSYSTPLTFGGGTKVDIKR
modifications: C8 Amino Acid Sequence
As for B1, the figures for the growth inhibition in experiment [1] (setting [4]) and in experiment [1] (after 48 h incubation) were 40% and “No further reduction”, respectively.

B2: D3: Utr2 antibody; SEQ ID NO: 26 (protein)
scFv: QMQLVQSGAEVKKPGESLKISCKGSGYSFTSYWIGWVRQMPGKGLEWMGIIYPGDSDTRYSPSFQGQVTISADKSISTAYLQWSSLKASDTAMYYCARLKTGDQLPDIWGQGTMVTVSSLEGGGGSGGGGSGGGASDIVMTQTPLSLSVTPGQPASISCKSSQSLLHSDGKTYLYWYLQKPGQPPQLLIYEVSNRFSGVPDRFSGSGSGTDFTLKISRVEAEDVGVYYCMQTIQLPATFGGGTKLEIRR
modifications: D3 Amino Acid Sequence
Regarding B2, the growth inhibition result in experiment [1] (after 48 h incubation) is recorded as “approximately 40%”.

B3: 1B1: Utr2 antibody; SEQ ID NO: 10 (protein)
scFv: QGQLVQSGGGVVQPGRSLRLSCAASGFTFSSYAMHWVRQAPGKGLEWVAVISYDGSNKYYADSVKGRFTISRDNSKNTLYLQMNSLRAEDTAVYYCARIAHPRTRGGKEVEYFQHWGQGTLVTVSSLEGGGGSGGGGSGGGASDIVMTQTPLSSPVTLGQPASISCRSSQSLVYSDGNTYLNWFQQRPGQSPRRLIYKVSNRDSGVPDRFSGSGSGTDFTLKISRVEAEDVGVYYCMQGTHWPPSFGQGTKLEIKR
modifications: 1B1 Amino Acid Sequence
In the case of B3, the “cross-reactivity to A. fumigatus hyphae” value in experiment [2] is given as “cross-reactive”. Also, in experiment [3], the immunofluorescence staining entry is listed as “minimal staining”.

B4: B5: Utr2 antibody; SEQ ID NO: 12 (protein)
scFv: QVQLVESGGGVVQPGRSLRLSCAASGFTFSSYGMHWVRQAPGKGLEWVAVISYDGSNKYYADSVKGRFTISRDNSKNTLYLQMNSLKTEDTAQYYCVRVRRSGMARGLIDYWGQGTLVTVSSLEGGGGSGGGGSGGGASSYELTQDPAVSVALGQTVRITCQGDILRSYYASWYQQKPGQAPVLVIYGKNNRPSGIPDRFSGSSSGNTASLTITGAQAEDEADYYCNSRDSSGNHKVFGGGTKVTVLG
modifications: B5 Amino Acid Sequence
B4: the results for the growth inhibition in experiment [1] (setting [4]) and in experiment [1] (after 48 h incubation) were 40% and “No further reduction”, respectively.

B5: 1D2: Utr2 antibody; SEQ ID NO: 24 (protein)
scFv: QVQLVQSGAEVKKPGASVKVSCKASGYSFTNYDIYWVRQATGQGLEWVGFINPKTGKTGYAQKFQGRVTMSRDTSITTAYMELNSLTSEDTAVYYCASISGYWGQGTLVTVSSLEGGGGSGGGGSGGGASDIVMTQSPLSLPVTLGQPASISCRSSQSLVYSDGNTYLNWFQQRPGQSPRRLIYKVSNRDSGVPDRFSGSGSGTDFTLKISRVEAEDAGLYYCMQGSHWPPTFGQGTKVEIKR
modifications: 1D2 Amino Acid Sequence
On to B5, for which, in experiment [2], the “cross-reactivity to A. fumigatus hyphae” value was “cross-reactive”. Moreover, the immunofluorescence staining result in experiment [3] was “specifically stained the hyphal tips and bud surface”.

B6: 1C2: Utr2 antibody; SEQ ID NO: 14 (protein)
scFv: QVQLVQSGAEVKKPGASVKVSCKASGYTFTSYAMHWVRQAPGQRLEWMGWINAGNGNTKYSQKFQGRVTITRDTSASTAYMELSSLRSEDTAVYYCARGGAAAGYYMDVWGKGTLVTVSSLEGGGGSGGGGSGGGASNFMLTQPHSVSESPGKTVTISCTRSSGSIASNYVQWYQQRPGSSPTTVIYDDNQRPSGVPDRFSASIDSSSNSASLTISGLKTEDEADYYCQSYDSSIVVFGGGTKLTVLG
modifications: 1C2 Amino Acid Sequence
As to B6, the “cross-reactivity to A. fumigatus hyphae” value in experiment [2] is “cross-reactive”.
